# According to the DeepSol protein solubility set:
# Experiment: soluble on expression in E. coli; label from the status in PepcDB or PDB records
row,Sequence,soluble on expression in E. coli
1,MLGDVYHLFSGGKDSSLAAWILRKLGYEVRLVTITFGVLDNWKYAKETADILGFEHEVVRLPRELLNMAVEMCIEDGKPGRAIQFLHEKALEYVASRSYVKRISDGTRRDDKVPFLDLRKARSLEDRFNVAYIRPLLGLGYKTIRELANSIFVIEERESEKLEKGDYEAELRYMLRERGINPKTIFPSRHMQSRVVGIKDDELGRS,soluble
2,MAPPSQDVLKEIFNLYDEELDGKIDGTQVGDVARAAGLKPTQAMVTKAAGQEFKRKGEKRLTFEEWLPMYEQLAKEKEQGTYADFYEGLKVFDKEETGKILAAELRHILLALGERLSADEADELLKGVEDGEGMVKYEDFIKKVLAGPFPDQD,not soluble
3,MAISGVTLEESVRGAIDDLRMKKSRYVMMCIGADGKKIEVTEVGERSVNYTDLKEKFSTEKPCYVAFDFEYNDAGSKREKLILIQWIPDTARPREKMMYSASRDALSSVSEGYLPIQANDESGLDAEEIIRKVRLHRSVAAALE,soluble
4,MSQRTSEENRYEQLHRFAAKIHSTMQIDDVLEEIICTLQNVYPAFTYHLLLSHDNHVCGNLPIKTLALDESEGQPAALRAFLTGQVQCEETAAPPRSVLYAPIKGVQAVYGVIQIIAPYAAPFPKREINFISLLAGTAGRALENAKLYEQSRRLEHHHHHH,soluble
5,MARIIVVTSGKGGVGKTTSSAAIATGLAQKGKKTVVIDFDIGLRNLDLIMGCERRVVYDFVNVIQGDATLNQALIKDKRTDNLYILPASQTRDKDALTKEGVEKVLNDLGEMNFEFVVCDSPAGIESGALMALYFADEAVITTNPEVSSVRDSDRILGILSSKSRRAENSQEPIKEHLLLTRYNPGRVNRGDMLSMEDVLDILRIPLVGVIPEDQSVLRASNQGEPVILDKESDAGKAYEDTVDRLLGEERPFRFVEEEKKGFLKRLFGG,not soluble
6,MGSDKIHHHHHHMHVYESDVSWIDDRRTEVSVGDHRIEVDSPPEFGGPEGQLYPETLFPSVLASCLLTTFLEFKDRMGINLKSWNSHVTAELGPSPEKGFKFHRIKIHVKIGVNDEDKEKIPRAMQLAEKYCFISRAIRNNVEEIVDYEFV,not soluble
7,MKWLRLQDLPTDNSFAALPAEFYTRLQPRPPAAPRLLHANAEAAALIGLDPAEFSTQAFLDVFSGHAPLPGGDTLAAVYSGHQFGVWAGQLGEVRGPAGGWELQLKGAGMTPYSRMGDGRAVLRSSVREYLASEAMHGLGIPTTRSLALVVSDDPVMRETVETAAVVTRMAPSFVRFGSFEHWSARRQPEQLRVLADYVIDRFYPECRVAGAGRLDGEHGEILGLLAAVTRRTALLMADWQAVGFCHGVMNTDNMSILGLTLDYGPYGFMDTFQLGHICNHSDSEGRYAWNRQPSVGLWNLYRLASSLHTLAPDPEALRAVLDGYEAVFTQAFHGRMAGKLGLPQFLPEDETLLDDLLQLMHQQGADFTLAFRRLGEAVRGQRQPFEDSFIDRAAAGAWYDRLAARHASDGRAAQARAAAMDEVNPLYVLRNHLAEQAIRAAARGDAGEIDILLKLLRNPYKHQPGYDAYAGLAPDWAAGLEVSCSSLEHHHHHH,not soluble
8,MSLSVPLLSRVGADRADRLRTDMEAAAAGWPGAALLRVDSRNRVLVANGRVLLGAAIELADKPPPEAVFLGRVEGGRHVWAVRAALQPIADPDIPAEAVDLRGLGRIMDDTSSQLVSSASALLNWHDNARFSALDGAPTKPARAGWSRVNPITGHEEFPRIDPAVICLVHDGADRAVLARQAAWPERMFSLLAGFVEAGESFEVCVAREIREEIGLTVRDVRYLGSQQWPFPRSLMVGFHALGDPDEEFSFSDGEIAEAAWFTRDEVRAALAAGDWSSASESKLLLPGSISIARVIIESWAACEEGHHHHHH,soluble
9,MPFRTIARLNPAKPKAGEEFRLQVVAQHPNEPGTRRDAEGKLIPAKYINLVEVYFEGEKVAEARPGPSTSANPLYAFKFKAEKAGTFTIKLKDTDGDTGEASVKLELV,soluble
10,MGSDKIHHHHHHMAGANNPVITIKRGLDIPIAGEPLQQIDDAPKTTQVALIGEEYVGLKPTMSVEVGDHVVKGQVLFEDKKTPGVLFTAPASGVVCAINRGERRVLQSVVIDCDATQEPAIILESVDIHALSHQAVKDGLVRSGLWTALRTRPFSRVPQLDAAPAGIFVTAIDTNPLAPDPRVIIATQPQAFQAGLFALTFLTTEKVYLCQDDGASLLADASSEYDLSKVSVQRFNGVHPAGLVGTHIHFLLPASIERQVWHVGYQDVIAFGKLFLTGELYTDRIVALGGPNVLKPRLVRTQLGAKLSEWVNGEIDQRQSRIVSGSLLSGHTAADVYDFLGRFHNQISVLTENERQELLPWVRHDSSKFSLTGIMMSGFSRTKKLFDFTTNAGGSPRAMMAFGQLARVMPLDILPILLVRDLVVRDTDEAQLLGALELDEEDLALCTFVCPGKYDFGKELRACLDIIEREG,not soluble
11,MSLPQPKKDKPDTPLRSDAQRNRERILAVATEELTHCANAPLSAIAKKAGVGQGTFYRNFPNREALVLEIYRYGMQQVAEAAPEMLATGEPDLALRQWMDRLAEFAMTKAGLADAIRLVTSAPGAPEKPRPTPLEDAAELLLRANHEAGTIRPGVTGDDFFLVLGGLWLIDPGENWQPRVTRFLDLVMDGLRAGAPGREGHHHHHH,soluble
12,GPGSMRWPAEPGCGSQGPATPERANKLRFLLVGKTDSGNHPSGWLVARTVRYSTADAEIGPCKGLISHDCKLLLLLCGYFERNPGPLRFVQQNVNGVSAVKLSSLLALDADVYLLPEVKKLREASRICKVPPYTVYCSPPNARGGRVAILVHQRSSIQTRSVTWKALPNDTGIKAVTVKL,not soluble
13,MGARCSKLSVCWWPPHFKSPLLENGAAADDGSGVPVFAEYSLDELRVATDGFSPERIVSEHGEKAPNVVYRGTLFSTGRTVAIKRFGRSAWPDSRQFLEEAMAVGQLRSVRLANLIGCCCENGERLLVAEFMPHETLAKHLFHWETKPLSWAMRVRAAFYVAQALEYCSSKGRALYHDLHAYRVLFDVDGNPRLSCFGLMKNSRDGKSYSTNLAFTPPEYLKTGRVIPESVVYSFGTILLDLLSGKHIPPSHALDLIRGKNYLVLMDSCLEGHVSSSDGTELIRLASRCLQYEGRDRPNLKSVVSALGNLQKDASAPSHALLGIQHDKENTERISLSAIAKVYARADLDEVHEMLENDGYCEDERATFEVSFHSWTGQQVSDSILVKKHGDSAFQSKDFATAVECYSRFIDTGVMVSPTMLARRSFVYMVLGKLQEGLADAKKAADISPEWPTAHYLQGMAYLAMGMEPEGHEELKQGAALEAERNAR,soluble
14,MGSDKIHHHHHHMKISCKNVGVILPIFNSSHRSFKKTFLQAASGGRIGSSNTGIIEVEALKKIDFTLTEGNRLALIGHNGSGKTTLLRVLAGAYKPTSGKYECIGRVTSLIDPMMGMDGELTGLENIKLRGLFLGLSKNEIKNITEDVIEFSELGDFIKIPVRTYSSGMVLRLGFSISTAINPEILLMDEWMSVGDSDFKRKAEMRLNSFISKAGIMVMATHDDELAKSVCNKFIRLEHGEIVSKGGF,not soluble
15,MFDAVKKIVLSYRVSPNRDTLSAIKAIDDVLRKLASLPDDLSFVVDGNPIYRLAQHFFAQHGISFDVRQVIGLTNEDPVSEEFRPLKQIIERFNRTFKGNYRPTHGFGAEEGSVSFVTLFVAYFNFLRPHSALEGRVPVVIPELADLPHMPARWTKLIAMAQAFLQQEAA,not soluble
16,VAGDTTITIVGNLTADPELRFTPSGAAVANFTVASTPRIYDRQTGEWKDGEALFLRCNIWREAAENVAESLTRGARVIVSGRLKQRSFETREGEKRTVIEVEVDEIGPSLRYATAKVNKASRSGGFGSGSRPAPAQTSSASGDDPWGSAPASGSFGGGDDEPPF,soluble
17,MSLVMSGEKMKVIIVEDEFLAQQELSWLINTHSQMEIVGSFDDGLDVLKFLQHNKVDAIFLDINIPSLDGVLLAQNISQFAHKPFIVFITAWKEHAVEAFELEAFDYILKPYQESRIINMLQKLTTAWEQQNNAAEGHHHHHH,soluble
18,MGSDKIHHHHHHMRITSIFLFTIIIFGGLSCSNDDSLIHNKTKGILEKYPEPTVTITAHNHIPFLAKNILEEKAITKSVNIISDIAWANGFGRTITARSDEMVIPDNMNRYIYPGSILEASSIAETRFTPIPVKNNPVHVSVSFPAKKVGGTIKEPSLLNIRQFVMDLMQQNNIGKQSATLSFDVQKFVSYDELKMTFGSNENTGLLFWGTSSAQYQNKYRIIRSSGLCIKFIQKYFTLDMDIPSNGLISGTIPGGYSPVYVSSIAYGRIGILTLETNYDYEKANKLVKETFNSLFINKNNTLTKEQEAFFNSAEMKVFIAGGSGVTGVKTIGGIKEFTNYITEGGEFSASSPGKPIFCSFANYSDDSPYRINFKIDIDSDPVYARLEYDITKDVSGGNVKSWYTDANVYLRFYADKACSIKTIAQNYIGFNINRLILQQYVGPNYSVSKAREVKLDQNLTFHNQTKGIEYPIAYGHRMTETIGTTYLDRGNWTNDHFYLRAGKFYQVRPPINMKYTCFIDYHNQNEYDCSDFE,not soluble
19,MSIYYDLYENPKQEDAEEQKLLHARVVPSGTYTTKEFVERVSMMHHIPHAQLVGAVEAITDELQTLLSRGYIVEFGDLGHFSLTLSLEKEIIDRKEVRSPSIRLKNIKLKVKQTYKRELNSKMDLERISSPTRSNAKISEDECLKKLQDFLEKHPCINRADYCAITGMSRLQALHQLNLFIEKGIIQKYGNGKTVVYIRVV,not soluble
20,MGHHHHHHSHMTNQNVLLNISGVKFVLRIPNAVNLSLINREYEAFNNAQAYRAGLNVETPVLDAKSGVKLTRYLENSNTLSQIQLNEQSCLSQVVNNLYRLHNSEFVFRNVFSVFDEFRQYFSLLENKSAFYQADSRMDKLSAVFWQFEEINKEVILRPCHNDLVPENMLLQDDRLFFIDWEYSGLNDPLFDIATIIEEAHLSKEAADFLLETYCNQTNKYHKTEFQIAHKRLKIHRFCQNVLWFLWTKVKEEHGENFGDYALKRLDAAFKLLEELP,soluble
21,MLRHHSCALLMLILVFVEVFATQSPTFDRQDRDYRPLQFGKRDGYRPLQFGKRDYRPLQFGKRSSGSSGPVVLEPIWEWQ,soluble
22,MNGSADAGPRPRKYVFITGGVVSSLGKGILTSSLGALLRARGYRVTAIKIDPYVNVDAGTMRPYEHGEVFVTADGAETDLDIGHYERFLDMDLSRGNNLTTGQVYLSVIQKERRGEYLSQTVQVIPHITDEIKERIRKVAEEQKAEIVVVEVGGTVGDIESLPFLEAIRQFRFDEGEGNTLYLHLTLVPYLETSEEFKTKPTQHSVATLRGVGIQPDILVLRSARPVPEEVRRKVALFTNVRPGHVFSSPTVEHLYEVPLLLEEQGLGRAVERALGLEAVIPNLSFWQEAVRVLKHPERTVKIAIAGKYVKMPDAYLSLLEALRHAGIKNRARVEVKWVDAESLEAADLDEAFRDVSGILVPGGFGVRGIEGKVRAAQYARERKIPYLGICLGLQIAVIEFARNVAGLKGANSTEFDPHTPHPVIDLMPEQLEVEGLGGTMRLGDWPMRIKPGTLLHRLYGKEEVLERHRHRYEVNPLYVDGLERAGLVVSATTPGMRGRGAGLVEAIELKDHPFFLGLQSHPEFKSRPMRPSPPFVGFVEAALAYQERA,soluble
